Test [1] has as its target T1, human factor B (purified, Complement Technology A135) (human, UniProt P00751 26-764).
T1 construct: also called fB; human complement factor B
Put plainly: ELISA, plate coated with human factor B, anti-human kappa light chain HRP. On the procedure:
The binding activities of these mAbs towards factor B were analyzed by ELISA using standard protocols. In one exemplary experiment, MaxiSorp™ ELISA plates (Nunc, #439454, Rochester, N.Y.) were coated with 50 μL of human factor B (Complement Technology, A135, 1 mg/mL, lot 14c) at a concentration of 0.5 μg/mL in carbonate coating buffer (0.795 g carbonate+1.46 g bicarbonate+1 mL 1% NaN₃ (final concentration of 0.002%) in 500 mL water, pH 9.6 (lot 02 August 10)). Plates then were covered with plate sealers and incubated at 37±1° C. for one hour. Following coating, wells were emptied of reagent and washed in a BioTek® ELx405 plate washer (BioTek, Winooski, Vt.) for three times with 200 μL wash solution (PBS/0.05% Tween 20) per well. Following washes, wells were blocked with 100 μL of BSA (1% w/v) and incubated for one hour at room temperature. Wells were then washed again as described above. Fifty microliter samples (i.e., TA106 Fab, CLS011 mAb, CLS012 mAb, and CLS013 mAb) were then added to wells and incubated for one hour at room temperature. […] The plate was read on a Benchmark™ microplate reader (Bio-Rad Laboratories, Hercules, Calif.) at 450 nm. Standard curves were plotted with 4 parameter fit with DeltaSoft® 1.6 software, and sample concentrations were determined from the standard curves.
On the technique in general: An ELISA detects its analyte on a solid surface through an enzyme-linked reagent.

Test [2] has as its target T1, human factor B (purified, Complement …). In words: BLI (Octet), biotinylated factor B on streptavidin biosensor, Fab at 3.13 nM. On the procedure:
(§1) Binding kinetics of TA106 and TA106 S33A Fab (CLS016) to Factor B were analyzed using a FortéBio® Octet® biosensor (FortéBio, Inc.) in a similar protocol as described previously. In one exemplary experiment, Factor B (Complement Technology) was biotinylated at a 1:10 ratio and coupled to a streptavidin biosensor at a concentration of 5 μg/mL for a loading time of 600 seconds. Biosensors were briefly dipped in 1×KB as a wash for 30 seconds. Associations with a titration series of Fab with a concentration range from 100 to 3 nM (diluted in 1×KB) were carried out for 600 seconds. Fabs were dissociated from the biosensor by immersing the biosensor in 1×KB during the 600 second dissociation phase. As depicted in FIGS. 19 and 20, both TA106 Fab and TA106-derivative S33A Fab (CLS016) bound to Factor B at various concentrations, resulting in nearly identical association and dissociation profiles. Kinetic assessments using partial local fit parameters yielded identical values for KD/kₐ/Kd at each concentration tested.

The target is the same in test [3]. In words: BLI (Octet), biotinylated factor B on streptavidin biosensor, Fab at 100 nM. On the procedure:
as §1

Test [4] shares this target. Put plainly: cell-based or functional assay.
For test [5] the target is unchanged. Put plainly: BLI (Octet), binding to factor B (summary table). On the procedure:
as §1

Test [6] shares this target. In words: SPR (Biacore), factor B bound directly to the chip, free TA106 Fab flowed; Chi2 0.901 (the text rounds to 1.4 nM). An excerpt: The difference in the two Biacore data sets could be explained as either that the conformation of factor B changes when binding to the surface or that not all commercial factor B is active. This later Biacore experiment (with a fixed concentration of factor B bound to the chip) removed the factor B concentration from the calculation.

The target is the same in test [7]. Put plainly: SPR (Biacore 3000), Fab captured on chip, soluble human factor B 3.1-100 nM. An excerpt:
(§2) Binding kinetics of TA106 Fab and variant S33A Fab (CLS016) were further characterized using Surface Plasmon Resonance (SPR) technology. In one exemplary experiment, both Fabs were captured on chips of a Biacore 3000 analyzer and samples of human factor B of different concentrations were flowed as the antigen over the surface to model soluble human factor B binding, using protocols recommended by the manufacturer and described previously in the instant disclosure. […] In another exemplary experiment, the affinities of both Fabs were also measured by reversing the orientation of the previous experiment. Specifically, human factor B was directly coupled to one flow cell of a CM5 chip. The second flow cell was used as a blank reference with no coupled ligand. CLS016 or TA106 Fab was then flowed on both flow cells. Concentrations between 0.19 to 25 nM were run with duplicates. The surface was regenerated between each cycle.

The target is the same in test [8]. Put plainly: SPR (Biacore), TA106 Fab captured on anti-Fab surface, soluble factor B 3.1-100 nM flowed; Chi2 0.206.
Excerpt: as §2
A general note: In SPR one partner is held on a chip, and binding of the other changes the refractive index at the surface.

The target is the same in test [9]. Put plainly: SPR, factor B on surface, Fab flowed (summary table).
Excerpt: as §2

Test [10] has the same target. In words: SPR (Biacore), human factor B directly coupled to CM5 chip, Fab flowed at 0.19-25 nM.
Excerpt: as §2

T1 sequence (P00751 26-764): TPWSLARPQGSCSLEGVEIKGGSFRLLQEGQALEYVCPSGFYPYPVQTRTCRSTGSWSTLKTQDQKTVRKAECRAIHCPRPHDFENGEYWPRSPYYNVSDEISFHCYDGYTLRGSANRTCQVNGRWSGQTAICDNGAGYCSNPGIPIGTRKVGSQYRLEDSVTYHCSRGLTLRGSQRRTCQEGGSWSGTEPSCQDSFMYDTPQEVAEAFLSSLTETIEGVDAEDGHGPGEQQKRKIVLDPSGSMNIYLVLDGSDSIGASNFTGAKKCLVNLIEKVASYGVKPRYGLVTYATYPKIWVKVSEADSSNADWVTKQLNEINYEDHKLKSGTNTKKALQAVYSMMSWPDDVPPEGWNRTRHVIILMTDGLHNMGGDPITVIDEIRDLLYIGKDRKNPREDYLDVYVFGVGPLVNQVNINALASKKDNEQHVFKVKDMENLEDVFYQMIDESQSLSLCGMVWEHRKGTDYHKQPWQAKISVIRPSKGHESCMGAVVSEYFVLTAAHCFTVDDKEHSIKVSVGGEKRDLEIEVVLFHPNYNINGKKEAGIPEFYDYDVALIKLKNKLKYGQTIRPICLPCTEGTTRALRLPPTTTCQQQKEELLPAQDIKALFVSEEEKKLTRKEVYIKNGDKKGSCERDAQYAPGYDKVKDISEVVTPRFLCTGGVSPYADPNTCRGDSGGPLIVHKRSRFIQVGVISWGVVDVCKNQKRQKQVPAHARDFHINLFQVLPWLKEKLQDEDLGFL

B1: TA106 Fab (humaneered anti-factor B Fab, expressed in E. coli) (Fab, V domains shown)
VH: QVQLVQSGAEVKKPGASVKVSCKASGYSFTDYYMTWVRQAPGQGLEWMGWINPNSGGTKYAQKFQGRVTMTRDTSISTAYMELSRLRSDDTAVYYCARGYYANSAWFAYWGQGTLVTVSS
VL: DIVMTQSPDSLAVSLGERATINCKSSQSLLNSSTSKNYLAWYQQKPGQPPKLLIYWASTRESGVPDRFSGSGSGTDFTLTISSLQAEDVAVYYCKQVYNLPWTFGQGTKLEIKR
notes: Fab made in E. coli by Xoma, not glycosylated; also called Fab TA106; TA106 wild type Fab
In the case of B1, the 50% effective concentration (EC50) (in general, the midpoint of the concentration-response curve) in test [1] came to 0.57 nM. Further, the Kd – broadly, the constant that tells how readily two partners part at equilibrium – in test [2] is 32.3 nM; in test [3] it was 13 nM; in [5], 20 to 30 nM; in [6], 1.39 nM; in test [7], around 30.6 nM; in test [9] it was 1.5 nM. The same molecule gave an equilibrium dissociation constant (Kd) in [10] of around 1.2 nM. Further, the off-rate constant (koff) (commonly the rate constant with which the complex falls apart) stood at 0.00239 s⁻¹ in [2], 0.00405 s⁻¹ in test [3] and 0.00338 s⁻¹ in test [8]. The association rate constant (kon) (commonly a measure of how fast the partners come together) in test [2] turned out to be 74000 M⁻¹ s⁻¹; in [3], 312000 M⁻¹ s⁻¹; in test [8], 136000 M⁻¹ s⁻¹. In addition, in test [4], the “IC50 (read off the curve); lysis of rabbit red blood cells in 10% normal human serum” value is around 80 nM.

Source of the values: US20150166643A1 (Alexion, published 2015).
